The record followed here is article PMC5261807 (2017).

B1: H3 16-35 (peptide)
chain: PRKQLATKAARKSAPATGG
modifications: histone peptides carry modifications given inline in the sequence and in columns 4-7 (Kac, Kme1/2/3, Rme2a/s, Cit, pS/pT); N-terminus free or acetylated
B2: H3 26-45 (peptide)
chain: RKSAPATGGVKKPHRYRPG
modifications: histone peptides carry modifications given inline in the sequence and in columns 4-7 (Kac, Kme1/2/3, Rme2a/s, Cit, pS/pT); N-terminus free or acetylated

Non-standard residues stand in square brackets, D forms with d. Primed or numbered codes have the meaning given here. No end group written: not given here. Me2s″ = symmetric dimethylarginine (Rme2s); Arg(Me2a) = CN(C)C(=N)NCCC[C@H](N)C(=O)O; Arg(Me2s) = CN=C(NC)NCCC[C@H](N)C(=O)O; pT = C[C@@H](OP(=O)(O)O)[C@H](N)C(=O)O; Lys(Me2) = CN(C)CCCC[C@H](N)C(=O)O; pS = N[C@@H](COP(=O)(O)O)C(=O)O; Lys(Me) = CNCCCC[C@H](N)C(=O)O

For the first assay, the target named is T1, Bdf1 bromodomain 2 (GST-tagged, WT) (Saccharomyces cerevisiae (strain ATCC …, UniProt P35817)).
T1 chain: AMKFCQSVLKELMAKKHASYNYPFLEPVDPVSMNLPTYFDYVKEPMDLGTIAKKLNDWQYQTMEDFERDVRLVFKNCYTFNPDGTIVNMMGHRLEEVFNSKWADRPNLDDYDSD
Briefly: histone peptide array probed with recombinant GST-bromodomain, signal normalised to myc peptide control.
With PRKQLATKAA[Arg(Me2s)]KSAPATGG, the binding score came to 0.

For A[Arg(Me2s)]T[Lys(Me2)]QTA[Arg(Me2s)][Lys(Me2)]STGGKAPRKQ, the binding score was 0.

For ARTKQTARKSTGGKAPRKQ (A R T K Q T A R K S pT G G Kac A P R K Q), the binding score amounted to 0.121.

ARTKQTA[Arg(Me2a)]K(Me)[pS]TGGKAPRKQ: the binding score is 0.00521.

In the case of PDPAK(Ac)SAPAPKK(Ac)GSK(Ac)KAVT, the binding score came to 0.329.

Regarding ARTKQTARKSTGGKAPRKQ (A R T Kme3 Q T A Rme2s Kme3 S T G G K A P R K Q), the binding score is 0.

As for ARTKQTARKSTGGKAPRKQ (A R T K Q T A R Kme1 S T G G Kac A P R K Q), the binding score was found to be 0.0902.

Regarding ARTKQTA[Arg(Me2a)][Lys(Me)][pS][pT]GGKAPRKQ, the binding score stood at 0.

Regarding ARTKQTARKSTGGKAPRKQ (A Rme2s T Kme2 Q T A Rme2a Kme2 S T G G K A P R K Q), the binding score was found to be 0.

As for AR[pT]KQTARKSTGGKAPRKQ, the binding score was 0.0062.

Turning to [pS]GRGKQGGK(Ac)ARAK(Ac)AKSRSS, the binding score was 0.186.

In the case of A[Arg(Me2a)]TK(Me)QTARKSTGGKAPRKQ, the binding score worked out at 0.

Regarding ARTKQTARKSTGGKAPRKQ (A R T K Q T A R Kme2 S pT G G K A P R K Q), the binding score stood at 0.

With [pS]GRGK(Ac)QGGK(Ac)ARAKAKSRSS, the binding score stood at 0.162.

With ARTKQTARKSTGGKAPRKQ (A Rme2s T Kme1 Q T A Rme2s K S T G G K A P R K Q), the binding score turned out to be 0.0062.

With B1, the binding score is 0.

Turning to [pS]GRGK(Ac)QGGK(Ac)ARAK(Ac)AKSRSS, the binding score was 0.388.

For the molecule ARTKQTA[Arg(Me2a)][Lys(Me2)][pS][pT]GGKAPRKQ, the binding score came to 0.

Regarding B2, the binding score stood at 0.00305.

For A[Arg(Me2a)]TK(Ac)QTARKSTGGKAPRKQ, the binding score is 0.00915.

Consider PDPAKSAPAPKKG[pS]KKAVT, for which the binding score is 0.

Regarding ARTKQTARKSTGGKAPRKQ (A Rme2a T Kme3 Q T A Rme2s Kme2 S T G G K A P R K Q), the binding score is 0.

On to ARTKQTARKSTGGKAPRKQ (A R T K Q T A R Kme2 S T G G Kac A P R K Q), for which the binding score came to 0.104.

As for AR(Me2s″)TK(Me)QTARK(Me)STGGKAPRKQ, the binding score was 0.0105.

For PDPAK(Ac)SAPAPKKGSK(Ac)KAVT, the binding score was determined as 0.

For ARTKQTARKSTGGKAPRKQ (A Rme2s T Kme2 Q T A Rme2s K S T G G K A P R K Q), the binding score worked out at 0.00226.

As to [pS]GRGK(Ac)QGGKARAKAKSRSS, the binding score stood at 0.0135.

On to SGRGKGGKGLGKGGAKRHR (S G R G Kac G G Kac G L G Kac G G A K R H R) [H4 1-19], for which the binding score stood at 0.496.

As to PRKQLATKAA[Arg(Me2a)]KSAPATGG, the binding score worked out at 0.

ARTKQTA[Arg(Me2a)]K(Ac)[pS]TGGKAPRKQ: the binding score was found to be 0.00384.

Regarding ARTK(Me3)QTARKSTGGKAPRKQ, the binding score stood at 0.00148.

With ARTK(Ac)QTARKSTGGKAPRKQ, the binding score stood at 0.00679.

For the molecule A[Arg(Me2a)]TK(Ac)QTA[Arg(Me2s)][Lys(Me2)]STGGKAPRKQ, the binding score was determined as 0.00482.

Consider A[Arg(Me2a)][pT]K(Ac)QTARKSTGGKAPRKQ, for which the binding score stood at 0.0394.

ARTKQTARKSTGGKAPRKQ (A R T K Q T A R Kme1 S pT G G K A P R K Q): the binding score worked out at 0.00344.

Regarding ARTKQTARKSTGGKAPRKQ (A R T K Q T A R K pS pT G G K A P R K Q), the binding score turned out to be 0.

As for ARTKQTARKSTGGKAPRKQ (A Rme2a T Kme2 Q T A Rme2a Kac S T G G K A P R K Q), the binding score came to 0.00423.

With ARTKQTARKSTGGKAPRKQ (A Rme2s T Kme2 Q T A Rme2s Kme1 S T G G K A P R K Q), the binding score was determined as 0.00423.

Regarding ARTKQTARKSTGGKAPRKQ (A R T Kme2 Q T A Rme2s Kme1 S T G G K A P R K Q), the binding score is 0.

For the molecule SGRGK(Ac)QGGKARAK(Ac)AKSRSS, the binding score is 0.127.

Regarding ARTKQTARKSTGGKAPRKQ (A R T K Q T A R Kme3 S T G G K A P R K Q), the binding score is 0.00305.

Regarding ARTK(Me)QTARKSTGGKAPRKQ, the binding score was determined as 0.00305.

For the molecule ARTKQTARKSTGGKAPRKQ (A Rme2a T Kac Q T A Rme2s Kme1 S T G G K A P R K Q), the binding score was found to be 0.

In the case of ARTKQTARKSTGGKAPRKQ (A Rme2a T Kme1 Q T A Rme2a Kme2 S T G G K A P R K Q), the binding score was determined as 0.000885.

As to A[Arg(Me2a)]TK(Me3)QTARKSTGGKAPRKQ, the binding score turned out to be 0.00344.

The target of the next assay is T2, Bdf1 bromodomain 1 (GST-tagged, WT) (Saccharomyces cerevisiae (strain ATCC …, UniProt P35817)).
T2 chain: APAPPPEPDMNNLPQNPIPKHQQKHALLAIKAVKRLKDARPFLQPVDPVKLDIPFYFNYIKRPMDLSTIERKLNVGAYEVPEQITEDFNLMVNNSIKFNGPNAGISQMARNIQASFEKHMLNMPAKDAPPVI
The assay is described as above.
PRKQLATKAA[Arg(Me2s)]KSAPATGG: the binding score stood at 0.

Turning to A[Arg(Me2s)]T[Lys(Me2)]QTA[Arg(Me2s)][Lys(Me2)]STGGKAPRKQ, the binding score turned out to be 0.

Consider ARTKQTARKSTGGKAPRKQ (A R T K Q T A R K S pT G G Kac A P R K Q), for which the binding score is 0.00574.

As for ARTKQTA[Arg(Me2a)]K(Me)[pS]TGGKAPRKQ, the binding score was determined as 0.

With PDPAK(Ac)SAPAPKK(Ac)GSK(Ac)KAVT, the binding score was found to be 0.

With ARTKQTARKSTGGKAPRKQ (A R T Kme3 Q T A Rme2s Kme3 S T G G K A P R K Q), the binding score worked out at 0.

Turning to ARTKQTARKSTGGKAPRKQ (A R T K Q T A R Kme1 S T G G Kac A P R K Q), the binding score came to 0.0251.

For the molecule ARTKQTA[Arg(Me2a)][Lys(Me)][pS][pT]GGKAPRKQ, the binding score came to 0.

Consider ARTKQTARKSTGGKAPRKQ (A Rme2s T Kme2 Q T A Rme2a Kme2 S T G G K A P R K Q), for which the binding score was determined as 0.

As to AR[pT]KQTARKSTGGKAPRKQ, the binding score was 0.

Take [pS]GRGKQGGK(Ac)ARAK(Ac)AKSRSS: the binding score stood at 0.0477.

As for A[Arg(Me2a)]TK(Me)QTARKSTGGKAPRKQ, the binding score turned out to be 0.

As to ARTKQTARKSTGGKAPRKQ (A R T K Q T A R Kme2 S pT G G K A P R K Q), the binding score turned out to be 0.

As to [pS]GRGK(Ac)QGGK(Ac)ARAKAKSRSS, the binding score turned out to be 0.00663.

As to ARTKQTARKSTGGKAPRKQ (A Rme2s T Kme1 Q T A Rme2s K S T G G K A P R K Q), the binding score is 0.

B1: the binding score was 0.

With [pS]GRGK(Ac)QGGK(Ac)ARAK(Ac)AKSRSS, the binding score was 0.0949.

On to ARTKQTA[Arg(Me2a)][Lys(Me2)][pS][pT]GGKAPRKQ, for which the binding score was 0.00448.

For B2, the binding score came out at 0.00968.

As for A[Arg(Me2a)]TK(Ac)QTARKSTGGKAPRKQ, the binding score was 0.00897.

For PDPAKSAPAPKKG[pS]KKAVT, the binding score came out at 0.00699.

For ARTKQTARKSTGGKAPRKQ (A Rme2a T Kme3 Q T A Rme2s Kme2 S T G G K A P R K Q), the binding score is 0.00269.

On to ARTKQTARKSTGGKAPRKQ (A R T K Q T A R Kme2 S T G G Kac A P R K Q), for which the binding score came out at 0.0411.

Turning to AR(Me2s″)TK(Me)QTARK(Me)STGGKAPRKQ, the binding score turned out to be 0.

Regarding PDPAK(Ac)SAPAPKKGSK(Ac)KAVT, the binding score came out at 0.00143.

Take ARTKQTARKSTGGKAPRKQ (A Rme2s T Kme2 Q T A Rme2s K S T G G K A P R K Q): the binding score stood at 0.

With [pS]GRGK(Ac)QGGKARAKAKSRSS, the binding score was determined as 0.00197.

Take SGRGKGGKGLGKGGAKRHR (S G R G Kac G G Kac G L G Kac G G A K R H R) [H4 1-19]: the binding score stood at 0.307.

In the case of PRKQLATKAA[Arg(Me2a)]KSAPATGG, the binding score worked out at 0.

As to ARTKQTA[Arg(Me2a)]K(Ac)[pS]TGGKAPRKQ, the binding score is 0.00126.

With ARTK(Me3)QTARKSTGGKAPRKQ, the binding score was 0.

For ARTK(Ac)QTARKSTGGKAPRKQ, the binding score was found to be 0.000538.

Consider A[Arg(Me2a)]TK(Ac)QTA[Arg(Me2s)][Lys(Me2)]STGGKAPRKQ, for which the binding score turned out to be 0.0188.

For the molecule A[Arg(Me2a)][pT]K(Ac)QTARKSTGGKAPRKQ, the binding score turned out to be 0.0346.

For ARTKQTARKSTGGKAPRKQ (A R T K Q T A R Kme1 S pT G G K A P R K Q), the binding score turned out to be 0.0122.

On to ARTKQTARKSTGGKAPRKQ (A R T K Q T A R K pS pT G G K A P R K Q), for which the binding score stood at 0.00681.

As for ARTKQTARKSTGGKAPRKQ (A Rme2a T Kme2 Q T A Rme2a Kac S T G G K A P R K Q), the binding score came to 0.0126.

Consider ARTKQTARKSTGGKAPRKQ (A Rme2s T Kme2 Q T A Rme2s Kme1 S T G G K A P R K Q), for which the binding score turned out to be 0.00323.

ARTKQTARKSTGGKAPRKQ (A R T Kme2 Q T A Rme2s Kme1 S T G G K A P R K Q): the binding score came to 0.

Turning to SGRGK(Ac)QGGKARAK(Ac)AKSRSS, the binding score was found to be 0.0151.

For the molecule ARTKQTARKSTGGKAPRKQ (A R T K Q T A R Kme3 S T G G K A P R K Q), the binding score was determined as 0.

Consider ARTK(Me)QTARKSTGGKAPRKQ, for which the binding score is 0.

Consider ARTKQTARKSTGGKAPRKQ (A Rme2a T Kac Q T A Rme2s Kme1 S T G G K A P R K Q), for which the binding score came to 0.

With ARTKQTARKSTGGKAPRKQ (A Rme2a T Kme1 Q T A Rme2a Kme2 S T G G K A P R K Q), the binding score was determined as 0.00251.

Take A[Arg(Me2a)]TK(Me3)QTARKSTGGKAPRKQ: the binding score is 0.0122.
